Reference: the supplement of paper PMC10567573

B1: WDFY1 (parent)
chain: LLIPKEDGVITASEDRTIRVWLKR

Variants of: B1
Test: protein stability index of a GFP-peptide fusion (GPS, HEK-293T) (PSI 1-6); higher = more stable
Settings: c terminus: a fixed tail appended
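Note: lentivirally expressed fusions sorted by FACS into six bins by GFP to DsRed ratio, PSI derived from sequencing read proportions per bin multiplied by bin number.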

Variant | protein stability index
LLIPEEDGVITASEDRTIRVWLKR [K5E] | 1.58
LLIPREDGVITASEDRTIRVWLKR [K5R] | 1.44
LLIPFEDGVITASEDRTIRVWLKR [K5F] | 1.4
LLIPYEDGVITASEDRTIRVWLKR [K5Y] | 2.91
LLIPLEDGVITASEDRTIRVWLKR [K5L] | 1.36
LLIPDEDGVITASEDRTIRVWLKR [K5D] | 2.41
LLIPNEDGVITASEDRTIRVWLKR [K5N] | 2.15
LLIPIEDGVITASEDRTIRVWLKR [K5I] | 2.28
LLIPCEDGVITASEDRTIRVWLKR [K5C] | 2.26
LLIPAEDGVITASEDRTIRVWLKR [K5A] | 2.13
LLIPSEDGVITASEDRTIRVWLKR [K5S] | 1.2
LLIPHEDGVITASEDRTIRVWLKR [K5H] | 1.65
LLIPGEDGVITASEDRTIRVWLKR [K5G] | 3.24
LLIPWEDGVITASEDRTIRVWLKR [K5W] | 1.41
LLIPQEDGVITASEDRTIRVWLKR [K5Q] | 1.57
LLIPTEDGVITASEDRTIRVWLKR [K5T] | 1.62
LLIPKEDGVITNSEDRTIRVWLKR [A12N] | 2.56
LLIPKEDGVITQSEDRTIRVWLKR [A12Q] | 2.18
LLIPKEDGVITKSEDRTIRVWLKR [A12K] | 2.19
LLIPKEDGVITISEDRTIRVWLKR [A12I] | 1.92
LLIPKEDGVITLSEDRTIRVWLKR [A12L] | 2.1
LLIPKEDGVITYSEDRTIRVWLKR [A12Y] | 2.66
LLIPKEDGVITCSEDRTIRVWLKR [A12C] | 1.77
LLIPKEDGVITPSEDRTIRVWLKR [A12P] | 2.76

Variant | protein stability index
LLIPKEDGVITGSEDRTIRVWLKR [A12G] | 1.93
LLIPKEDGVITSSEDRTIRVWLKR [A12S] | 1.71
LLIPKEDGVITDSEDRTIRVWLKR [A12D] | 2.39
LLIPKEDGVITHSEDRTIRVWLKR [A12H] | 2.08
LLIPKEDGVITFSEDRTIRVWLKR [A12F] | 1.91
LLIPKEDGAITASEDRTIRVWLKR [V9A] | 2.58
LLIPKEDGNITASEDRTIRVWLKR [V9N] | 2.44
LLIPKEDGEITASEDRTIRVWLKR [V9E] | 2.6
LLIPKEDGSITASEDRTIRVWLKR [V9S] | 2.74
LLIPKEDGRITASEDRTIRVWLKR [V9R] | 2.33
LLIPKEDGFITASEDRTIRVWLKR [V9F] | 1.81
LLIPKEDGHITASEDRTIRVWLKR [V9H] | 2.48
LLIPKEDGIITASEDRTIRVWLKR [V9I] | 2.77
LLIPKEDGGITASEDRTIRVWLKR [V9G] | 2.4
LLIPKEDGWITASEDRTIRVWLKR [V9W] | 2.22
LLIPKEDGQITASEDRTIRVWLKR [V9Q] | 2.56
LLIPKEDGPITASEDRTIRVWLKR [V9P] | 3.22
LLIPKEDGCITASEDRTIRVWLKR [V9C] | 1.65
LLIPKEDGTITASEDRTIRVWLKR [V9T] | 2.14
LLIPKEDGYITASEDRTIRVWLKR [V9Y] | 1.02
LLIPKEDGMITASEDRTIRVWLKR [V9M] | 2.21
LLIPKEDGKITASEDRTIRVWLKR [V9K] | 1.69
LLIPKEDGVKTASEDRTIRVWLKR [I10K] | 2.17
LLIPKEDGVPTASEDRTIRVWLKR [I10P] | 4.2

Variant | protein stability index
LLIPKEDGVSTASEDRTIRVWLKR [I10S] | 2.07
LLIPKEDGVYTASEDRTIRVWLKR [I10Y] | 1.91
LLIPKEDGVQTASEDRTIRVWLKR [I10Q] | 2.62
LLIPKEDGVLTASEDRTIRVWLKR [I10L] | 2.21
LLIPKEDGVTTASEDRTIRVWLKR [I10T] | 2.47
LLIPKEDGVMTASEDRTIRVWLKR [I10M] | 2.14
LLIPKEDGVHTASEDRTIRVWLKR [I10H] | 1.94
LLIPKEDGVNTASEDRTIRVWLKR [I10N] | 2.54
LLIPKEDGVATASEDRTIRVWLKR [I10A] | 2.4
LLIPKEDGVCTASEDRTIRVWLKR [I10C] | 1.94
LLIPKEDGVDTASEDRTIRVWLKR [I10D] | 2.83
LLIPKEDGVETASEDRTIRVWLKR [I10E] | 2.68
LLIPKEDGVRTASEDRTIRVWLKR [I10R] | 2.07
LLIPKEDGVGTASEDRTIRVWLKR [I10G] | 2.76
LLIPKEDGVFTASEDRTIRVWLKR [I10F] | 2.42
LLIPKEDGVITASEPRTIRVWLKR [D15P] | 2.17
LLIPKEDGVITASEVRTIRVWLKR [D15V] | 1.37
LLIPKEDGVITASEERTIRVWLKR [D15E] | 1.66
LLIPKEDGVITASEGRTIRVWLKR [D15G] | 2.09
LLIPKEDGVITASEKRTIRVWLKR [D15K] | 1.41
LLIPKEDGVITASETRTIRVWLKR [D15T] | 1.19
LLIPKEDGVITASEMRTIRVWLKR [D15M] | 1.55
LLIPKEDGVITASEQRTIRVWLKR [D15Q] | 2.32
LLIPKEDGVITASECRTIRVWLKR [D15C] | 1.1

Variant | protein stability index
LLIPKFDGVITASEDRTIRVWLKR [E6F] | 2.25
LLIPKYDGVITASEDRTIRVWLKR [E6Y] | 2.4
LLIPKRDGVITASEDRTIRVWLKR [E6R] | 1.63
LLIPKIDGVITASEDRTIRVWLKR [E6I] | 1.98
LLIPKQDGVITASEDRTIRVWLKR [E6Q] | 3.73
LLIPKTDGVITASEDRTIRVWLKR [E6T] | 1.77
LLIPKVDGVITASEDRTIRVWLKR [E6V] | 1.42
LLIPKMDGVITASEDRTIRVWLKR [E6M] | 2.65
LLIPKGDGVITASEDRTIRVWLKR [E6G] | 2.56
LLIPKCDGVITASEDRTIRVWLKR [E6C] | 2.67
LLIPKADGVITASEDRTIRVWLKR [E6A] | 2.59
LLIPKWDGVITASEDRTIRVWLKR [E6W] | 1.66
LLIPKHDGVITASEDRTIRVWLKR [E6H] | 2.67
LLIPKDDGVITASEDRTIRVWLKR [E6D] | 2.82
LLIPKPDGVITASEDRTIRVWLKR [E6P] | 2.43
LLIPKKDGVITASEDRTIRVWLKR [E6K] | 2.18
LLIPKSDGVITASEDRTIRVWLKR [E6S] | 2.06
LLIPKNDGVITASEDRTIRVWLKR [E6N] | 2.58
LLIPKLDGVITASEDRTIRVWLKR [E6L] | 3.18
LLIPKEDGVITAQEDRTIRVWLKR [S13Q] | 3.07
LLIPKEDGVITAMEDRTIRVWLKR [S13M] | 1.45
LLIPKEDGVITALEDRTIRVWLKR [S13L] | 2.15
